# Results: paper PMC4159047 (Science signaling, 2014)
# How the values were obtained:
# [1] = target: type IV collagen; test: SPR
# [2] = target: type IV collagen (biotin (Pierce EZ-link biotinylation kit) in the pull-downs); test: SPR
molecule,measurement,setting,value
"Gpr126-NT-Fc (secreted, Fc-tagged protein containing the N-terminal fragment of zebrafish Gpr126) (Fc fusion)",Kd,[1],1.3 nM
same,koff,[1],0.000404 s⁻¹
same,kon,[1],306000 M⁻¹ s⁻¹
"CUBPTX-Fc (signal peptide, CUB domain and PTX domain of Gpr126 followed by an Fc tag) (Fc fusion, zebrafish, UniProt C6KFA3 41-336, looked up) CNVVLTDSQGSFTSPCYPNDYPPSQSCNWTIQAPAGFIVQITFLDFELEEAQGCIYDRVVVKTGTSDAKFCGLTANGLTLNSTGNVMEVFFNSDFSVQKKGFHISYKQVAVTLRNQKVTMPKSSKTILRVSNSISIPVLTAFTVCFEIARTAQKATETIFTLSDAAGTSILAFEKTSNGMELFIGASYCSVDNLLTSSDITATMKPLCLTWTKSSGLIGVYFGGHYFSSICSASQIYTLQSGGLLQIAGKGSSSVSVDDQNLDGFIYNFRLWDHAMLSSELSALTCDTVGNVVDWD",Kd,[2],1.2 nM
same,koff,[2],0.00333 s⁻¹
same,kon,[2],2.78e+06 M⁻¹ s⁻¹
